Measurements: publication PMC8862428, “Modeling the stimulation by glutathione of the steady state kinetics of an adenosine triphosphate binding cassette transporter” (Protein Science : A Publication of the Protein Society, 2021)

Substrate: Nc1ncnc2c1ncn2[C@@H]1O[C@H](COP(=O)(O)OP(=O)(O)OP(=O)(O)O)[C@@H](O)[C@H]1O
Experiment: molybdate phosphate-release ATPase assay, global fit to nonessential activator model
Assay type: biochemical, Novosphingobium aromaticivorans
Details: nanodiscs (MSP1D1/POPC), basal ATPase, constant for transporter without GSSG, Mg complex of ATP, 100 mM NaCl, 20 mM Tris pH 7.5, 37 °C
Excerpt: molybdate phosphate-release ATPase assay, global fit to nonessential activator model on NaAtm1

B1: NaAtm1 (Novosphingobium aromaticivorans DSM 12444) (protein)
chain: MPPETATNPKDARHDGWQTLKRFLPYLWPADNAVLRRRVVGAILMVLLGKATTLALPFAYKKAVDAMTLGGGAQPALTVALAFVLAYALGRFSGVLFDNLRNIVFERVGQDATRHLAENVFARLHKLSLRFHLARRTGEVTKVIERGTKSIDTMLYFLLFNIAPTVIELTAVIVIFWLNFGLGLVTATILAVIAYVWTTRTITEWRTHLREKMNRLDGQALARAVDSLLNYETVKYFGAESREEARYASAARAYADAAVKSENSLGLLNIAQALIVNLLMAGAMAWTVYGWSQGKLTVGDLVFVNTYLTQLFRPLDMLGMVYRTIRQGLIDMAEMFRLIDTHIEVADVPNAPALVVNRPSVTFDNVVFGYDRDREILHGLSFEVAAGSRVAIVGPSGAGKSTIARLLFRFYDPWEGRILIDGQDIAHVTQTSLRAALGIVPQDSVLFNDTIGYNIAYGRDGASRAEVDAAAKGAAIADFIARLPQGYDTEVGERGLKLSGGEKQRVAIARTLVKNPPILLFDEATSALDTRTEQDILSTMRAVASHRTTISIAHRLSTIADSDTILVLDQGRLAEQGSHLDLLRRDGLYAEMWARQAAESAEVSEAAE
notes: His-tag (NiNTA) purified from E. coli BL21-gold (DE3); 135 kDa transporter (homodimer); in DDM/C12E8 detergent, MSP1D1/POPC nanodiscs or proteoliposomes
B1 was tested, and the Km was 1.41 ± 0.08 mM and the kcat was 31.86 ± 1.04 min⁻¹.
